Source: US20230036213A1

Target: HLA-DR (human)
Assay: cell-based or functional assay

- IFN-gamma production, decrease in the presence of HLA-DR blocking antibodies: 32 to 80%
Binder: GEFRYYPNIIAKGVG [HPIV3 Matrix Epitope Peptide 84 (…)]
